The target in this assay is Human CTLA4 fusion protein (CTLA4Ig) (human, UniProt P16410 36-161). Nature of the assay: solid phase competition on immobilized CTLA4-Ig; reference B7-1Ig.

These results are taken from US7459544 (GENETICS INSTITUTE, dated 2008).

Chain of Human CTLA4 fusion protein (CTLA4Ig) (P16410 36-161): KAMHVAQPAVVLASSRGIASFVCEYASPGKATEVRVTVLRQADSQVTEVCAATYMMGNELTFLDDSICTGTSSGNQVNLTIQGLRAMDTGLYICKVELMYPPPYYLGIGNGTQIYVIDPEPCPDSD

B1: human B7-2 immunoglobulin fusion protein (hB7-2Ig, full extracellular domain) (Fc fusion)
chain: APLKIQAYFNETADLPCQFANSQNQSLSELVVFWQDQENLVLNEVYLGKEKFDSVHSKYMGRTSFDSDSWTLRLHNLQIKDKGLYQCIIHHKKPTGMIRIHQMNSELSVLANFSQPEIVPISNITENVYINLTCSSIHGYPEPKKMSVLLRTKNSTIEYDGIMQKSQDNVTELYDVSISLSVSFPDVTSNMTIFCILETDKTRLLSSPFSIELEDPQPPPD
modifications: Biotinylated or 125I-labelled in some assays.
notes: Coated on plates, biotinylated or 125I-labelled depending on the assay; also called human B7.2-Ig; full-length B7-2; not shown: Junction residue Q and the hinge-CH2-CH3 of human IgG1 or IgG4 (hinge Cys to Ser, optionally CH2 mutated)
In the case of B1, the “fold lower avidity than B7-1” value is approximately 2 fold.
